The results in this text go back to paper PMC10247930, “The effects of novel macrocyclic chelates on the targeting properties of the ^68Ga-labeled Gastrin releasing peptide receptor antagonist RM2” (EJNMMI Research, 2023).

The data set can be described thus: in vivo. The arrangement: species or system BALB/c nu/nu mice. Conditions: male, BALB/c nu/nu, mouse, iv, 2.6 MBq, total radioactivity. On the procedure:
Biodistribution. BALB/c nu/nu male mice were implanted subcutaneously with 10 million PC-3 tumor cells, freshly expanded in saline. Biodistribution studies were performed 3 to 4 weeks after tumor cell inoculation when the tumor-bearing mice reached an average mass of 20 ± 3 g. Mice were injected with ^68Ga-X-RM2 (100 µL, 2.6 MBq) into the tail vein. The animals were sacrificed at 30, 60, and 120 min post-injection. Then the organs of interest were collected and weighed, and their radioactivity content was measured in a gamma counter.

In the case of `CC(C)C[C@H](NC(=O)C[C@H](O)[C@H](CC(C)C)NC(=O)[C@H](Cc1c[nH]cn1)NC(=O)CNC(=O)[C@@H](NC(=O)[C@H](C)NC(=O)[C@H](Cc1c[nH]c2ccccc12)NC(=O)[C@H](CCC(N)=O)NC(=O)[C@@H](Cc1ccccc1)NC(=O)CN1CCC(NC(=O)CCCCC2(N(CC(=O)O)CC(=O)O)CN(CC(=O)O)CCN(CC(=O)O)C2)CC1)C(C)C)C(N)=O` [AAZTA^5-RM2], the tissue to tissue ratio at 0.5 h reads like this: (Tumour/blood ratio) 3.53; (Tumour/bone ratio) 21.8; (Tumour/kidneys ratio) 1.2; (Tumour/liver ratio) 6.04; (Tumour/muscle ratio) 10.3. Besides, the tissue to tissue ratio at 1 h was 8.38 (Tumour/blood ratio); 36 (Tumour/bone ratio); 1.41 (Tumour/kidneys ratio); 7.55 (Tumour/liver ratio); 37.6 (Tumour/muscle ratio). Moreover, the tissue to tissue ratio at 2 h runs as follows: (Tumour/blood ratio) 15.6; (Tumour/bone ratio) 57.5; (Tumour/kidneys ratio) 1.31; (Tumour/liver ratio) 5.92; (Tumour/muscle ratio) 60.7.
Take `CC(C)C[C@H](NC(=O)C[C@H](O)[C@H](CC(C)C)NC(=O)[C@H](Cc1c[nH]cn1)NC(=O)CNC(=O)[C@@H](NC(=O)[C@H](C)NC(=O)[C@H](Cc1c[nH]c2ccccc12)NC(=O)[C@H](CCC(N)=O)NC(=O)[C@@H](Cc1ccccc1)NC(=O)CN1CCC(NC(=O)CN2CCN(CC(=O)O)CCN(CC(=O)O)CCN(CC(=O)O)CC2)CC1)C(C)C)C(N)=O` (68Ga complex, metal not drawn) [DOTA-RM2, reference compound]: the tissue to tissue ratio at 0.5 h (Tumour/blood ratio) came out at 2.35; the tissue to tissue ratio at 0.5 h (Tumour/bone ratio) amounted to 11.2; the tissue to tissue ratio at 0.5 h (Tumour/kidneys ratio) was determined as 1.53; the tissue to tissue ratio at 0.5 h (Tumour/liver ratio) was found to be 3.19; the tissue to tissue ratio at 0.5 h (Tumour/muscle ratio) amounted to 14.4. Besides, the tissue to tissue ratio at 1 h is 3.88 (Tumour/blood ratio); 8.99 (Tumour/bone ratio); 1.89 (Tumour/kidneys ratio); 3.4 (Tumour/liver ratio); 21.8 (Tumour/muscle ratio). In addition, the tissue to tissue ratio at 2 h (Tumour/blood ratio) is 4.58; the tissue to tissue ratio at 2 h (Tumour/bone ratio) worked out at 8.6; the tissue to tissue ratio at 2 h (Tumour/kidneys ratio) turned out to be 2.05; the tissue to tissue ratio at 2 h (Tumour/liver ratio) stood at 4; the tissue to tissue ratio at 2 h (Tumour/muscle ratio) was determined as 31.7.
`CC(C)C[C@H](NC(=O)C[C@H](O)[C@H](CC(C)C)NC(=O)[C@H](Cc1c[nH]cn1)NC(=O)CNC(=O)[C@@H](NC(=O)[C@H](C)NC(=O)[C@H](Cc1c[nH]c2ccccc12)NC(=O)[C@H](CCC(N)=O)NC(=O)[C@@H](Cc1ccccc1)NC(=O)CN1CCC(NC(=O)CCCCC2(N(C)CC(=O)O)CN(CC(=O)O)CCN(CC(=O)O)C2)CC1)C(C)C)C(N)=O` [DATA^5m-RM2]: the tissue to tissue ratio at 0.5 h was determined as 4.23 (Tumour/blood ratio); 16.2 (Tumour/bone ratio); 1.73 (Tumour/kidneys ratio); 5.86 (Tumour/liver ratio); 25.4 (Tumour/muscle ratio). In addition, the tissue to tissue ratio at 1 h was 14.6 (Tumour/blood ratio); 29.3 (Tumour/bone ratio); 2.2 (Tumour/kidneys ratio); 7.57 (Tumour/liver ratio); 56.8 (Tumour/muscle ratio). Besides, the tissue to tissue ratio at 2 h is, setting by setting: (Tumour/blood ratio) 18.2; (Tumour/bone ratio) 50.2; (Tumour/kidneys ratio) 2.41; (Tumour/liver ratio) 6.09; (Tumour/muscle ratio) 62.2.
